This note sets out measurements from patent publication US20260242515A1 (DUALITY BIOLOGICS SHANGHAI, published 2026).

Assay [1] deals with T1, Human ADAM9 protein (ACROBiosystems, Cat. No. AD9-H52H7) (human, UniProt Q13443 29-697).
T1 construct: Bought protein; also called Human ADAM-His protein; human ADAM9 antigen; not shown: His tag
T1 sequence (looked up): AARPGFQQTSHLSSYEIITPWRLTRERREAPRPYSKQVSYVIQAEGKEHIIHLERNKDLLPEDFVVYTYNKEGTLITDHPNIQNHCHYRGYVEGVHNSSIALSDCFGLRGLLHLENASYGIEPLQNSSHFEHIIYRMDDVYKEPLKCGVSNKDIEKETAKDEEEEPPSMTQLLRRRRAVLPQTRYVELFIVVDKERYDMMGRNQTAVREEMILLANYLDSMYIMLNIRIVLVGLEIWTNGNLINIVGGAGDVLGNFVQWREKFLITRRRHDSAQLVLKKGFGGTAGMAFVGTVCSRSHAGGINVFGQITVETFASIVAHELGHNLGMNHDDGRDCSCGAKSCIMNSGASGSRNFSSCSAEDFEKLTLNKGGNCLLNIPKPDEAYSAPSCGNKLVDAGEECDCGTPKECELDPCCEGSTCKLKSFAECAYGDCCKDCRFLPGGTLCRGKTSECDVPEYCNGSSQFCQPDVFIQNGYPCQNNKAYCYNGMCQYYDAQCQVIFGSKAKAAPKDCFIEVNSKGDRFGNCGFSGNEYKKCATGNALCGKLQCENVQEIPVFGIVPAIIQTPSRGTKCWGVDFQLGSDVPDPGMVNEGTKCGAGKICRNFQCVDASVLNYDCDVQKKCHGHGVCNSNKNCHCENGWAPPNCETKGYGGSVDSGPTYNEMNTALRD
The assay is described as follows: SPR (Biacore 8K), antibody captured by anti-human Fc on CM5, ADAM9 as analyte. As to the method: Chip preparation: The mouse anti-human IgG (Fc) antibody (Cat. No. 29234600, Cytiva) was diluted to 25 μg/mL in immobilization buffer (10 mM sodium acetate, pH 5.0), specifically by adding 950 μL of the immobilization buffer to 50 μL of the mouse anti-human IgG (Fc) antibody. The dilution was used for immobilization in eight channels. First, the surface of the CM5 chip was activated with 400 mM EDC and 100 mM NHS at a flow rate of 10 μL/min for 420 seconds. Then, 25 μg/mL of the mouse anti-human IgG (Fc) antibody was injected into the test channels at a flow rate of 10 μL/min for approximately 360 seconds, with the level of immobilization at approximately 7000 to 14000 RU. Finally, the chip was blocked with 1 M ethanolamine at a flow rate of 10 μL/min for 420 seconds. The reference channels underwent the same procedures as the test channels.
Ligand capture: Antibodies Ab10, Ab15, Ab16, and hMAB-A (2I.2) were diluted to 4 μg/mL in running buffer (containing 10 mM N-(2-hydroxyethyl)piperazine-N-2-ethanesulfonic acid (HEPES), 150 mM sodium chloride (NaCl), 3 mM ethylenediaminetetraacetic acid (EDTA), 0.005% Tween-20, pH adjusted to 7.4) and injected into the test channels for human IgG (Fc) capture at a flow rate of 10 μL/min at approximately 200 RU. No ligand capture was performed in the reference channels.
Analyte multi-cycle analysis: Human and cynomolgus ADAM9 proteins (human ADAM9 protein purchased from ACRO, Cat. No. AD9-H52H7; monkey ADAM9 protein purchased from ACRO, Cat. No. AD9-C52H7) were diluted 2-fold in running buffer (Table 10). The diluted human or cynomolgus ADAM9 protein was sequentially injected into the test channels and the reference channels at a flow rate of 30 μL/min, with corresponding association and dissociation times. Both the association and dissociation steps were performed in the running buffer. After each concentration analysis, the chip was regenerated with 3 M magnesium chloride at a flow rate of 20 μL/min for 30 seconds to wash away the ligand and any undissociated analyte. For the next concentration analysis, the test channels required re-capture of the same amount of ligand.

Assay [2] addresses T1, Human ADAM9 protein (ACROBiosystems, …). Briefly: indirect ELISA, human ADAM9-His coated at 1 ug/mL. As to the method: The plate was washed three times with PBST (PBS (pH 7.4) containing 0.05% Tween-20), followed by addition of 200 μL/well of blocking buffer containing 1% bovine serum albumin (BSA) diluted in PBST, and incubated at 37° C. for 1 hour for blocking. After blocking, the blocking buffer was discarded, and the plate was washed once with PBST buffer. The test antibody was diluted in PBST containing 1% BSA with a 3-fold serial dilution starting at 15 μg/mL across 11 doses, and added to the ELISA plate at 100 μL/well, followed by incubation at 37° C. for 1 hour. After incubation, the plate was washed three times with PBST, followed by addition of 100 μL/well of HRP-labeled goat anti-human secondary antibody (Rockland, Cat. No. 609-103-123) diluted in PBST containing 1% BSA, and incubated at room temperature for 45 minutes. The plate was washed six times with PBST, followed by addition of 100 μL/well of TMB chromogenic substrate (Suzhou Yacoo Chemical Reagent Co., Ltd., Cat. No. S0025), and incubated at room temperature in the dark for 10 minutes. The reaction was terminated by adding 50 μL/well of 1 M HCl, and the absorbance was measured at 450 nm using a microplate reader (Thermo, Ascent) for data analysis.

The target of assay [3] is T2, ADAM9 on human tumor cells (LS174T, HepG2, Calu-3, Colo205) (human, UniProt Q13443 29-819).
T2 sequence (looked up): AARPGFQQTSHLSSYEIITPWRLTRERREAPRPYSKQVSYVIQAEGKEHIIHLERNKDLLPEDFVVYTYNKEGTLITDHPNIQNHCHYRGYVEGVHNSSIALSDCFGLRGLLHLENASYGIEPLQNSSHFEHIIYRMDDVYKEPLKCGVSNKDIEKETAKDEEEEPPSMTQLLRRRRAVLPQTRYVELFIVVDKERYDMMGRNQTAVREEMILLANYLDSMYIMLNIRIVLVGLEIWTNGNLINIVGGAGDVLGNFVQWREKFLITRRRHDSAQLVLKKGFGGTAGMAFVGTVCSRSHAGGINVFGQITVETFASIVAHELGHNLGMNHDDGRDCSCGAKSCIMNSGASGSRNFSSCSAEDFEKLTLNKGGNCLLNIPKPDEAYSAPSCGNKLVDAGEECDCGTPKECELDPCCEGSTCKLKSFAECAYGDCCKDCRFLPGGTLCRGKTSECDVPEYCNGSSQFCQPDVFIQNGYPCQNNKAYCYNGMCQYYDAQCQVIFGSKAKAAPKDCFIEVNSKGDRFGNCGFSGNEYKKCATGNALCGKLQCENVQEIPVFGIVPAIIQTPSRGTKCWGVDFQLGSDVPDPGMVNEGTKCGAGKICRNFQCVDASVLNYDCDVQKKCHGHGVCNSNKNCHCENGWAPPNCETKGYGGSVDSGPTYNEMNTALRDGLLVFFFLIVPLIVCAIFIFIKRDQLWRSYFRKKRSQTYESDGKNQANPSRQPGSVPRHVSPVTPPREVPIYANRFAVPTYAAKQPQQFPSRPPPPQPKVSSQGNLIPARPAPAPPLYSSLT
Briefly: cell-based or functional assay.

Assay [4] has as its target T2, ADAM9 on human tumor cells (LS174T, …). The assay is described as follows: cell-based or functional assay. This is another data set of the same source.

B1: Ab10 (antibody, human IgG1, kappa, V domains shown)
VH: QVQLQESGAELKRPGSSVKVSCKASGFTFPLYWMNWVRQRPGRGLEWMGRIIPIFGHTKYNEKFKDRATLTADESSSTAYMELSSLRSDDSAVYYCARGGYYYYPREGFLDYWGQGTSVTVSS
VL: DIVMTQSPASLSVSPGERASISCRSSQSVDYSGDSYMNWYQQKPGQSPRLLIYAASDRESGVPARFSGSKSGTDFTLKINRVEEEDAGTYYCQQSREDPFTFGQGTRVEIKR
notes: also called Ab10-V (variable regions)
Broadly, the Kd is the constant that tells how readily two partners part at equilibrium. In general, koff refers to a measure of how fast the partners let go of each other. The low end stands for slow dissociation, the high end for fast dissociation. By kon is commonly meant a measure of how fast the partners come together. Low readings indicate slower complex formation, high ones faster complex formation. One may read the EC50 as the concentration that produces a half-maximal response. A lower EC50 goes with greater potency. For B1, in assay [1], binding was put at a Kd of 17.5 nM, the koff stood at 0.00255 s⁻¹ and the kon was found to be 146000 M⁻¹ s⁻¹. In assay [2], it took 0.059 nM to reach a half-maximal effect (EC50) and the “Top (OD450)” value is 3.4 OD450. Moreover, in assay [3], the EC50 for internalization came out at 0.16 nM and the “Maximum internalization rate (%)” value was 81.3%.

B2: Ab15-X2 (antibody, human IgG1, kappa, V domains shown)
VH: QVQLQQPGAELKKPGASVKVSCKASGFTFPLYWMNWVRQRPGRGLEWIGRIIPIFGHTKYNEKFKDRATMTADESSSTAYMELSSLTSEDSAVYYCARGGYYYYPREGFLDYWGQGTSVTVSS
VL: DIVMTQSPDSLSVSPGERATINCRSSQSVDYSGDSYMNWYQQKPGQSPRLLIYAASDRESGVPDRFSGSGSGTDFTLKISNVEEEDAATYYCQQSREDPFTFGQGTRVEIKR
modifications: linker-payload X2 (camptothecin type) conjugated after TCEP reduction; DAR p=7.8 per antibody; sites not stated
Consider B2, for which, in assay [4], the “IC50 (nM), proliferation inhibition of Colo205 cells (CTG, 6 days)” value came to 28.5 nM and the “IC50 (nM), proliferation inhibition of LS174T cells (CTG, 6 days)” value is 11.6 nM.

B3: Ab16-X2 (antibody, human IgG1, kappa, V domains shown)
VH: QVQLQQPGTEVVKPGASVKLSCKASGFTFPLYWMHWVRQRPGRGLEWIGRIIPIFGHTKYNEKFKNKATLTADESSSTAYMELRSLTSDDSAVYYCARGGYYYYPREGFLDYWGQGTSVTVSS
VL: DIVMTQSPASLSVSPGERASISCRSSQSVDYSGDSYMNWYQQKPGQSPRLLIYAASDRESGVPDRFSGSGSGTDFTLKISRVEEEDAGTYYCQQSREDPFTFGQGTKVDIKR
modifications: linker-payload X2 (camptothecin type) conjugated after TCEP reduction; DAR p=7.9 per antibody; sites not stated
Turning to B3, in assay [4], the “IC50 (nM), proliferation inhibition of Calu-3 cells (CTG, 6 days)” value was 3.83 nM; the “IC50 (nM), proliferation inhibition of Colo205 cells (CTG, 6 days)” value was 29.8 nM; the “IC50 (nM), proliferation inhibition of LS174T cells (CTG, 6 days)” value stood at 8.97 nM.

B4: Ab16-X1 (antibody, human IgG1, kappa, V domains shown)
VH: QVQLQQPGTEVVKPGASVKLSCKASGFTFPLYWMHWVRQRPGRGLEWIGRIIPIFGHTKYNEKFKNKATLTADESSSTAYMELRSLTSDDSAVYYCARGGYYYYPREGFLDYWGQGTSVTVSS
VL: DIVMTQSPASLSVSPGERASISCRSSQSVDYSGDSYMNWYQQKPGQSPRLLIYAASDRESGVPDRFSGSGSGTDFTLKISRVEEEDAGTYYCQQSREDPFTFGQGTKVDIKR
modifications: linker-payload X1 (camptothecin type) conjugated after TCEP reduction; DAR p=7.8 per antibody; sites not stated
Regarding B4, the “IC50 (nM), proliferation inhibition of Calu-3 cells (CTG, 6 days)” value in assay [4] came out at 8.6 nM.

B5: Ab4 (antibody, human IgG1, kappa, V domains shown)
VH: QVQLQESGAEVKRPGSSVKVSCKASGFTFPLYWMNWVRQRPGRGLEWMGRIIPIFGHTKYNEKFKDRATMTRDKSSSTAYMELSSLTSDDSAVYYCARGGYYYYPREGFLDYWGQGTSVTVSS
VL: DIVMTQSPSSLSVSPGERATINCRSSQSVDYSGDSYMNWYQQKPGQAPRLLIYAASDLESGVPDRFSGSGSGTDFTLNINGVEEEDAATYYCQQSREDPFTFGQGTKVEIKR
notes: also called Ab04; Ab4-V (variable regions)
On to B5, for which, in assay [2], the EC50 turned out to be 0.055 nM and the “Top (OD450)” value was found to be 3.06 OD450.

B6: Ab1 (antibody, human IgG1, kappa, V domains shown)
VH: QVQLQESGAEVKRPGSSVKVSCKASGFTFPLYWMNWVRQRPGQGLEWMGRIIPIFGHTDYNEKFKDRATITRDESSNTAYMELSRLRSEDSAVYYCARGGYYYYPREGFLDYWGQGTSVTVSS
VL: DIVMTQSPASLSVSPGERASISCRSSQSVDYSGDSYMNWYQQKPGQSPRLLIYAASDRESGVPDRFSGSGSGTDFTLKISRVEEEDAGTYYCQQSREDPFTFGQGTKVDIKR
notes: also called Ab01; Ab1-V (variable regions)
Turning to B6, in assay [2], the concentration for a half-maximal effect (EC50) came to 0.052 nM and the “Top (OD450)” value amounted to 3.12 OD450.

B7: Ab7 (antibody, human IgG1, kappa, V domains shown)
VH: QVQLQESGAEVKRPGSSVKVSCKASGFTFPLYWMNWVRQRPGQGLEWMGRIIPIFGHTDYNEKFKDRATITRDESSNTAYMELSRLRSEDSAVYYCARGGYYYYPREGFLDYWGQGTSVTVSS
VL: DIVMTQSPASLSVSPGERASINCRSDQSVDYSGDSYMNWYQQKPGKSPRLLIYAASDRESGVPDRFSGSGSGTDFTLNINSVEEEDAGTYYCQQSREDPFTFGQGTRVDIKR
notes: also called Ab07; Ab7-V (variable regions)
On to B7, for which, in assay [2], the EC50 was determined as 0.06 nM and the “Top (OD450)” value is 3.31 OD450.
